Data reported in US12129308 (Merck KGaA, dated 2024).

molecular target: activated human MMP13 (human, UniProt P45452 104-471); test: cell-based or functional assay

| Binder | potency, human fluorogenic peptide assay |
| --- | --- |
| C010100689 (bispecific antibody) EVQLVESGGGLVQPGGSLRLSCAASGFAFSAAYMSWVRQAPGKGLEWVSSISDDGSKTYYADSVKGRFTISRDNSKNTVYLQMNSLRPEDTAVYYCNTGYGATTTRPGRYWGQGTLVTVSSGGGGSGGGGSGGGGSGGGGSGGGGSGGGGSGGGGSEVQLVESGGGLVQPGGSLRLSCAASGSTFIINVVRWYRRAPGKQRELVATISSGGNANYVDSVRGRFTISRDNSKNTVYLQMNSLRPEDTAVYYCNVPTTHYGGVYYGPYWGQGTLVTVSS | 1.91 nM |
| C010100170 (VHH) VHH: EVQLVESGGGLVQPGGSLRLSCAASGSIFSINAMGWYRQAPGKQRELVAAISSGGSTYYADSVKGRFTISRDNSKNTVYLQMNSLRPEDTAVYYCNAAVDASRGLPYELYYYWGQGTLVTVSS | 0.608 nM |
| C010100280 (VHH) VHH: EVQLVESGGGLVQPGGSLRLSCAASGFAFSAAYMSWVRQAPGKGLEWVSSISDDGSKTYYADSVKGRFTISRDNSKNTVYLQMNSLRPEDTAVYYCNTGYGATTTRPGRYWGQGTLVTVSS | 1.01 nM |
| C010100101 (VHH) VHH: EVQLVESGGGLVQPGGSLRLSCAASGFTLAYYSIGWFRQAPGKEREGVSCISSGIDGSTYYADSVKGRFTISRDNAKNTMYLQMNNLKPEDTGVYYCAADPSHYYSEYDCGYYGMDYWGKGTLVTVSS | 3.92 nM |
| C010100687 (bispecific antibody) EVQLVESGGGLVQPGGSLRLSCAASGFTLAYYSIGWFRQAPGKEREGVSCISSGIDGSTYYADSVKGRFTISRDNAKNTMYLQMNNLKPEDTGVYYCAADPSHYYSEYDCGYYGMDYWGKGTLVTVSSGGGGSGGGGSGGGGSGGGGSGGGGSGGGGSGGGGSEVQLVESGGGLVQPGGSLRLSCAASGSTFIINVVRWYRRAPGKQRELVATISSGGNANYVDSVRGRFTISRDNSKNTVYLQMNSLRPEDTAVYYCNVPTTHYGGVYYGPYWGQGTLVTVSS | 1.57 nM |
| C010100080 (bispecific antibody) EVQLVESGGGLVQPGGSLRLSCAASGRTFSSYAMGWFRQAPGKEREFVAAISWSGGSTYYADSVKGRFTISRDNSKNTVYLQMNSLRPEDTAVYYCTAALAVYGPNRYRYGPVGEYNYWGQGTLVTVSSGGGGSGGGGSGGGGSGGGGSGGGGSGGGGSGGGGSEVQLVESGGGSVQAGGSLRLSCAASGSTFSRYSMNWYRQAPGKQREFVAGISVGRITNYAVSVRGRFTISRDNAEGTGYLQMNSLKPEDTAVYYCNAGGLQGYWGLGTLVTVSSGAADYKDHDGDYKDHDIDYKDDDDKGAAHHHHHH | 0.488 nM |
| C010100688 (bispecific antibody) EVQLVESGGGLVQPGGSLRLSCAASGSIFSINAMGWYRQAPGKQRELVAAISSGGSTYYADSVKGRFTISRDNSKNTVYLQMNSLRPEDTAVYYCNAAVDASRGLPYELYYYWGQGTLVTVSSGGGGSGGGGSGGGGSGGGGSGGGGSGGGGSGGGGSEVQLVESGGGLVQPGGSLRLSCAASGSTFIINVVRWYRRAPGKQRELVATISSGGNANYVDSVRGRFTISRDNSKNTVYLQMNSLRPEDTAVYYCNVPTTHYGGVYYGPYWGQGTLVTVSS | 0.927 nM |

The remaining lines, values ahead:

| potency, human fluorogenic peptide assay | Binder |
| --- | --- |
| 0.0318 nM | C010100700 (bispecific antibody) EVQLVESGGGLVQPGGSLRLSCAASGRTFSSYAMGWFRQAPGKEREFVAAISWSGGSTYYADSVKGRFTISRDNSKNTVYLQMNSLRPEDTAVYYCTAALAVYGPSRYRYGPVGEYQYWGQGTLVTVSSGGGGSGGGGSGGGGSGGGGSGGGGSGGGGSGGGGSEVQLVESGGGSVQPGGSLRLSCAASGSTFSRYSMNWYRQAPGKQREFVAGISVGRITNYAVSVRGRFTISRDNSEGTGYLQMNSLRPEDTAVYYCNAGGLQGYWGLGTLVTVSSGGGGSGGGGSGGGGSGGGGSGGGGSGGGGSGGGGSEVQLVESGGGLVQPGGSLRLSCAASGSTFIINVVRWYRRAPGKQRELVATISSGGNANYVDSVRGRFTISRDNSKNTVYLQMNSLRPEDTAVYYCNVPTTHYGGVYYGPYWGQGTLVTVSS |
| 0.0671 nM | C010100726 (bispecific antibody) EVQLVESGGGLVQPGGSLRLSCAASGRTFSSYAMGWFRQAPGKEREFVAAISWSGGSTYYADSVKGRFTISRDNSKNTVYLQMNSLRPEDTAVYYCTAALAVYGPSRYRYGPVGEYQYWGQGTLVTVSSGGGGSGGGGSGGGGSGGGGSGGGGSGGGGSGGGGSEVQLVESGGGLVQPGGSLRLSCAASGSTFSRYSMNWYRQAPGKQREFVAGISVGRITNYAVSVKGRFTISRDNSKNTVYLQMNSLRPEDTAVYYCNAGGLQGYWGQGTLVTVSS |
| 0.134 nM | C010100727 (bispecific antibody) EVQLVESGGGLVQPGGSLRLSCAASGRTFSSYAMGWFRQAPGKEREFVAAISWSGGSTYYADSVKGRFTISRDNSKNTVYLQMNSLRPEDTAVYYCTAALAVYGPSRYRYGPVGEYQYWGQGTLVTVSSGGGGSGGGGSGGGGSGGGGSGGGGSGGGGSGGGGSEVQLVESGGGLVQPGGSLRLSCAASGSTFSRYSMNWYRQAPGKQREFVAGISVGRITNYAVSVKGRFTISRDNSKNTGYLQMNSLRPEDTAVYYCNAGGLQGYWGQGTLVTVSS |
| 0.484 nM | C010100691 (bispecific antibody) EVQLVESGGGLVQPGGSLRLSCAASGSIFSINAMGWYRQAPGKQRELVAAISSGGSTYYADSVKGRFTISRDNSKNTVYLQMNSLRPEDTAVYYCNAAVDASRGLPYELYYYWGQGTLVTVSSGGGGSGGGGSGGGGSGGGGSGGGGSGGGGSGGGGSEVQLVESGGGLVQPGGSLRLSCAASGRTFSSYTMGWFRQAPGKEREFVAAISWSGGRTYYADSVKGRFTISRDNSKNTVYLQMNSLRPEDTAVYYCAAYRRRRASSNRGLWDYWGQGTLVTVSS |
| 0.107 nM | C010100696 (bispecific antibody) EVQLVESGGGLVQPGGSLRLSCAASGRTFSSYAMGWFRQAPGKEREFVAAISWSGGSTYYADSVKGRFTISRDNSKNTVYLQMNSLRPEDTAVYYCTAALAVYGPSRYRYGPVGEYQYWGQGTLVTVSSGGGGSGGGGSGGGGSGGGGSGGGGSGGGGSGGGGSEVQLVESGGGSVQPGGSLRLSCAASGSTFSRYSMNWYRQAPGKQREFVAGISVGRITNYAVSVRGRFTISRDNSEGTGYLQMNSLRPEDTAVYYCNAGGLQGYWGLGTLVTVSSGGGGSGGGGSGGGGSGGGGSGGGGSGGGGSGGGGSEVQLVESGGGLVQPGGSLRLSCAASGRTFSSYTMGWFRQAPGKEREFVAAISWSGGRTYYADSVKGRFTISRDNSKNTVYLQMNSLRPEDTAVYYCAAYRRRRASSNRGLWDYWGQGTLVTVSS |
| 0.828 nM | C010100692 (bispecific antibody) EVQLVESGGGLVQPGGSLRLSCAASGFAFSAAYMSWVRQAPGKGLEWVSSISDDGSKTYYADSVKGRFTISRDNSKNTVYLQMNSLRPEDTAVYYCNTGYGATTTRPGRYWGQGTLVTVSSGGGGSGGGGSGGGGSGGGGSGGGGSGGGGSGGGGSEVQLVESGGGLVQPGGSLRLSCAASGRTFSSYTMGWFRQAPGKEREFVAAISWSGGRTYYADSVKGRFTISRDNSKNTVYLQMNSLRPEDTAVYYCAAYRRRRASSNRGLWDYWGQGTLVTVSS |
